Laboratory results from the DeepSol protein solubility set.

Assay: soluble on expression in E. coli; label from the status in PepcDB or PDB records

Sequence | soluble on expression in E. coli
MPTWEELYKNAIEKAIKSVPKVKGVLLGYNTNIDAIKYLDSKDLEERIIKAGKEEVIKYSEELPDKINTVSQLLGSILWSIRRGKAAELFVESCPVRFYMKRWGWNELRMGGQAGIMANLLGGVYGVPVIVHVPQLSRLQANLFLDGPIYVPTLENGEVKLIHPKEFSGDEENCIHYIYEFPRGFRVFEFEAPRENRFIGSADDYNTTLFIREEFRESFSEVIKNVQLAILSGLQALTKENYKEPFEIVKSNLEVLNEREIPVHLEFAFTPDEKVREEILNVLGMFYSVGLNEVELASIMEILGEKKLAKELLAHDPVDPIAVTEAMLKLAKKTGVKRIHFHTYGYYLALTEYKGEHVRDALLFAALAAAAKAMKGNITSLEEIREATSVPVNEKATQVEEKLRAEYGIKEGIGEVEGYQIAFIPTKIVAKPKSTVGIGDTISSSAFIGEFSFTL | soluble
MRTLFFIPSMGSVRLPLIDFLVKNDIEYVILSRRNHVAVQREIALDMFLEMKDYDTLAFLDEDVVPIEIDFQKVEAKFNEGYDVVCGYYYLKTLRGYSVYRKDWEKEIFDGEVNGCGLGFTFIKREFLEKIKRPAFLAFKPIESPHWIGEDVYFFSTHKPRTYALSSLKAYHFIDERLALSPDRKLILQNDHVARIKHHHHHH | soluble
MDSYGYIETMGLLTAIEAADAALKAANVVFTNCYIVKGGIVTVELAGDVAAVTAAVEAGSESARKLGNFISKNVIARVDDETKKILKGDTFISDNNKDGKTEKEISEEELLQNEMEKEEESIEELDALEEIIKADIPTAEGDIPLYDEVIKSPEFSELENDEEAKIITETVKRNDSDGEPYETQEKITVIEEEINTKQTNNNTDYENMKVTDLRGIVKELNSHLTWNQVKAMNKKKLVETLKKNKREK | not soluble
MLKKIERAQQLLKKEAAVFRCPTCHEPMHLEGVGLICQQRHQFDLSKKGTLYFLNHGVQTEYNKKMFTSRGKMIQSGMYAPVLNKIMHYLPQNKTVVDVGCGEGSFLAELSQAGLSGLKIGFDLSKEGIYLASNQPIDAFWCVADLTNLPFANEGLDTILNIFSPSHYQEFRRVLKADGTVIKIIPEENYLKELRAAFYPNDEKKQSYSNQKVVQRFAEELAVEVDERITYCFDIPEERRLDLLEMSPLEWQVSQEVKAELQQRPLEKITIDVRLLVGRKR | not soluble
MSLYYLFAPQFHPSKTVYVYVDRDDTADSIYNKIRQTGHVNKFTGFQWMAKYRKFDQNIHTGRYAIRPNENVYHVFSRFFRGYQEPMNLTIGSIRTLDRLARSIGKQLMIDSAEIARQLFDSAFQTEMGYTPVTMPCLFIPETYQVYWDMSVDDFFKRMQTEHKRFWNDERLAQATAIGMTPEEVCTLASIVEEETNNNEEKPMVAGLYINRLHTGMPLQADPTIKFALQDFGLRRITNEHLKVNSPYNTYINSGLPPGPIRIPSKKGLDSVLNYTKHNYIYMCAKEDFSGTHNFASNYADHMANARKYWKALNERKEGHHHHHH | not soluble
MNLDKVNKYIKDFEKTIKKPKINFDKSKFYVGVDLGTANIVITILDKDGKPVAGVTQRSRVVRDGIVVDFMEAIEIVRKLKENLEKKLGIEITEGYTAIPPGVEQGSVRAIVNVIESAGIDVLKVVDEPTAASYVLGITDGVVVDLGGGTTGISILEKGKVIFVADEPTGGTHMTLVLAGSYGIDFETAEDIKTDKKKEKEVFVQITPVLQKMAAIVKKYIKDYKVKDVFLVGGACSFDGSESIFERELGLNIYKPYMPVYITPLGIALAGMKSLEHHHHHH | soluble
MGSDKIHHHHHHMGKSFYRFRSTNNLLDGYSELEKQTIYFARPEQLNDPMEGYRDIYWRGDLIAWKNLFAHYVFCLERISSLLLISGEDNKIDADHIPVFGSTDDLPTDSYKNLFRKIKARFLENKYVSALILAISKRSTPIRREELAFYYDCMHIPALKLIFDVYIEENLSQEGNRIDDKAFAGISGVVSNDFVGLLEKSITDGEADQVIVNELFKAKSHIKQQSNLIHKHNGTISSSKPNKNLLMIDFPSLYLNRLEEITFPKWYTSCFMSECKNSSVWGHYGNNHTGMCLIFDSENINDRSYIKLNGITGWGSSGPIYGDKAMEFHPIDYKKGFGEIDFFTSIGSLPIPVLNTMWYMDEAGNTSVCANKMNVDEDAWRSNYWSNFIRGLTVKSKDWEYENEYRLILHSSITDLSEKDRRTLTYDFSSLKGIIFGINTKEEDKLKTIKIIEDKCNKHSRSDFKFYQAYYCADENCIKSVEMSLVKFSGNV | not soluble
MTTARDIMNAGVTCVGEHETLTAAAQYMREHDIGALPICGDDDRLHGMLTDRDIVIKGLAAGLDPNTATAGELARDSIYYVDANASIQEMLNVMEEHQVRRVPVISEHRLVGIVTEADIARHLPEHAIVQFVKAICSPMALAS | soluble
MADGVLAVSQEGFNTLQSYNVGEKYTADLWIQQGGLKSTASVVSFSVDKALLDSMNIADGTSYELLPADCYQLTKSSVDIPANERLLKGELTYDPAKIQELSGYDHLKYVLPLRATSSGMPFVSGRSVLLLGFKVSEPIVTIMNAGVEEINLAEVKELPVQIGVPFTNKWEISCRLESRQSVIDAYNTAHGTYFSMLPSDAYVTPETPILHSGVNQVTATYKLKDDILPGNYMLPVQIAEVTSDATIRADKDVYAAYSIIKEGDKLSKTDWKIVSFTTEEASGEGSNNGHAKHLIDGNIETFWHSRWQGGSDPLPYEIIIDMNHRVKIAQIELLPRGRGSNNPIKVVRFEASEDGTNWESIGQFGFTNQDAALKYYVKSSTARYIKLVIPDGVGNGTVAAIRELDVRGTVVNLEHHHHHH | soluble
NSESKSTPKRLHVSNIPFRFRDPDLRQMFGQFGKILDVEIIFNERGSKGFGFVTFENSADADRAREKLHGTVVEGRKIEVNNATARVMTN | soluble
IKTTKALQLNDEQQVAVDQITQAVDQAATTTFLLEGVTGSGKTEVYLQSMAAALVQGKTALMLVPEISLTPQMVQRVKGRFGKAVAVLHSGLSSGEKYDEWRRIQRGEAQVVVGARSAVFAPLKNLGLIVMDEEHESTYKQDDAPRYHARQVALWRSRYHNCPVVLGSATPSLETRARAEKG | not soluble
LFRRWVIYIIRLYQRWISPLKTMPSCRFYPTCSQYAIDAVGRYGVIKGGFMALKRILKCHPFHPGGYDPVK | soluble
MGSDKIHHHHHHMHIPPFDNQNQAIVGEGDAHVPLTYFNIVKLKEGEAYDYRLKGYETCIVPATGTVDVEVGGEVFADIGNRCVDVWDGDPEGVYVPTNVGAHITARTDAEIFVAGAQFTETLTPFAVRAGELDLVQYGSDETKTHRKIKHILGAGHHDRVGRLLVSELFTVGAGGWSGFPSHKHDTDRLPDETRHDECYNFRFKPDYGSGLQMLQREDNEPGDAYHIMNGSTVLIDKGYHPCCALPGYEMYYFTILGGLSQRSLKQYFQPTHSEQLHTIPGIMDMVAKFK | not soluble
MKVDGKHTRTIWLEADGWTVGTIDQRRLPHDYVVVKLTSSDDAADAIRTMLVRGAPLIGATAAYGMALAMREDASDAGLDAAYAKLVATRPTAINLKWALDEMRRALAPVQPADRVAAAYRRAGEIADEDVAINQAIGASGLKLIEAIAATKKPGERVNVLTHCNAGWLATVDWGTATAPIYQAFDAGIPIHVYADETRPRNQGASLTAWELGHHGVDHTVIPDNTGGHLMQHGLVDIVIVGTDRVTADGDVCNKIGTYLKALAAADNKVPFYVALPSPTIDFTIHDGVREIPIEQREAAEVTDMTGRTNDGRIETVRIVPQGSKVANYGFDVTPARLVTGLITERGVLKADRAALAAAFPERVAQAKELLRASAAALEHHHHHH | soluble
MMHMDESRKEIIREEAKRAKAIAVEKYKAGDFAGAKEFALKAKQINPALGGLRRLNALLDVCMGFQKQVNGEVDWYDVLAVERTADFITIFNRYSTLAIDISLDRDESVGSGVKEALKILTDASKYFLERRELLPSRRVSGPINQLSRISCEGSKQKEPPPTNLLHVSKLTRMSEDAEIRHDISPNRLRSALARKATSVIKLSLETFVCSSPHNNVGAAEETDNKVMEE | soluble
MVNLTELDRMLTETRGLLSQVRSGKGGASQEAVEGQGSAADGRIRVVAGAGGEITSIELDPRVMRMSSQELAEHLVEAVNQALRELRAQVTTAETAIAPEVLAQRLAEVQDQGLRQMTMFVEGLRDAMTQLGQRADRSG | not soluble
MGSSHHHHHHMDRYEIKGVDVASYQGDIDWRELEKQNMKFAFIKATEGSAFVDKYFSKNWTNANKTSMRVGAYHFFSFDSKGETQAEQFIRNVPKYKQALPPVIDVEFYANKKDNPPKREDVTKELSVMIEMLEKHYGKKVILYATQEAYDLYIKDAYPQCDIWIRSVLTKPSLSDERKWTFWQYTNRGKLSGYNGKEKYIDLNVFYGNEEEFENYGMKD | soluble
